In this assay the target is pFGFR2_(Cyto) (UniProt P21802). The assay is described as follows: MST.
Chain of pFGFR2_(Cyto) (P21802 400-821): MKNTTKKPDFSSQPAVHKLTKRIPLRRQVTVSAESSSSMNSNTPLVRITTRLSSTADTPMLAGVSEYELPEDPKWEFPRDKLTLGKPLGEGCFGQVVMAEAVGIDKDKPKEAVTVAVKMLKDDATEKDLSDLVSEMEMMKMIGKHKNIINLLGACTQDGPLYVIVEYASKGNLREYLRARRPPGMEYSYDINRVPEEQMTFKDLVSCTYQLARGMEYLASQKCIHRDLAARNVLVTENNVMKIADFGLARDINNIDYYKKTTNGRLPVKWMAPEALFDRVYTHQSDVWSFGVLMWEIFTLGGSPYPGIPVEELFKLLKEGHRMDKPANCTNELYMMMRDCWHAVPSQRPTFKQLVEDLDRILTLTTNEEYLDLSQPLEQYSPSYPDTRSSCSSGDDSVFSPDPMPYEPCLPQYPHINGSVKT

For orientation: Kd means the constant that tells how readily two partners part at equilibrium. High values mean a looser complex, low ones a tighter complex. With “PLCγ1_(2SH2) (from UniProt P19174 545-791) (domain or fragment)”, the dissociation constant (Kd) was 0.223 µM. That is a sub-micromolar value.

As for “SHP2_(2SH2) (from UniProt Q06124 1-221) (domain or fragment)”, the equilibrium dissociation constant (Kd) stood at 25.1 µM.

The values above are taken from PMC8937303.
